# Measured values taken from the domain aggregation screens of Martell et al. (2025).
# Test: soluble fraction after stress (log2 fold change); higher = more stays soluble; pooled small domains, quantitative proteomics
# Settings: stress: 75 degC
# 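Note: 20 min heating vs room temperature control held 20 min.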
row,Sequence,soluble fraction (log2)
1,HMFEDYNELDEYLETRFIPTYVLLKQRKNANGEIDHFPSIRLQHIMALKLSEAELEHVMNYLKEKNIRVG,-1.68
2,HMFEKVKLTLTIPSKYSGSTYSALRNRMNKFSKEEWLSNGDLKIEIEVTGGQKTDIYTLINKLTNGEAIIE,-1.25
3,HMFELDELDLVILKNLANGLSKKQIRVKLKKMDLRPNSESAIDKRVSKLFDEFGAKNSTELVAKLIREGL,-2.71
4,HMFELTVGTPIRVIREPYFGKLGTVTELPAQLMVVESGTEVRVLKAKIEGEGEVLVPRANVEIIATG,-1.38
5,HMFELVKISENIPIRDLAETLKTTPNEIIKELMVFGVLANINQTLNFDLASKVADKLGFEVELL,-0.266
6,HMFEMPTSLVRTLSAIAIKQPVMQSEIIKLRGAGAYDHIKELIIRELVHRKEEGRSPILTTTKKFQEYFRL,-2.52
7,HMFERIYVFSRDGDIIELPKGSTVLDFAYHVHTHVGNRAQAARVNKRYVPLTYQLKTGEQVEIIIS,-1.44
8,HMFEYDEEEYEKLGPNADLTIKSMTDWGQSLVRKGVWSESDFEEFKIMGGTAQGLRALQKVRSYY,-0.649
9,HMFFAGLSPEAARTLDSLPLHSWSSVEQIARQAGLNIETVRKELGLLELSGIALSRQGRFRRA,-1.07
10,HMFFFILNKGAKSGGEITHAVLNGSIVSKPAGWDAFHGLVLAKEKLSSEEIQRQMKELGVEMEIVPL,-2.4
11,HMFGDQMQSYLSRLSQIDVDIIALKYGDNFTYREIGLILEMSEDSVRQRAVRARKKLETMIQKG,-3.31
12,HMFGEDNLKSKEIKERVTEVAKHADDPVWIEARRKWKDENPDQNVKDYQQAYISGRIHELPWDVSYI,0.117
13,HMFGEKEFYQWIGKTAGEKFSGLPAAVIKSLYKYWREYNLSEEDIMGFIRQTELLPKRTPLDVELFFEK,-0.857
14,HMFGELTPDTAKRFLLTAREQEMASLIAQGLTNKEIAFRLGISEATVRTHIYNLFQKVGVQSRIELLNVLH,-1.69
15,HMFGNTGETSGTGVAFTRSPVDGENKIFGEFLVNAQGEDVVAGIRTPQPISEMEQAFPEVYSKFESVAEIL,0.0261
16,HMFHDALVSFAERRVIFMKELVNRLNEARKAYYEGESIMSDKEYDNLYDKLVKMELTTGVVLPNSPTEEVG,-1.33
17,HMFIEHSKYKLSFKYNQLGKISNVINSNNGIIMDKHFDQNITLLAKLTENTFQEIIKHFPTIIIKRL,-3.74
18,HMFIEPPSLEELERRLRGRGTETDDVVDMRMRTALVELSQKMEYDYRLVNDDLDEATRQLVAYVNEIAEQ,-0.0555
19,HMFIPMTDAQRHLFANKLAKLPELSEYSRGTESYEDFAIRIADMLLEPPKFRMFYPLLEQLGF,-1.77
20,HMFIVTDQMQRVLDYITEKEKATNNDLEELLGVKSTRIYTITRKLIQHNLIIPVGKGKNKYYIL,-0.902
21,HMFKDVTVPSVINKTEAEATNMLKGLNLVVSVEYEENANKSDGIVTAQNVNANKVIKEGETVTITVNKQP,0.113
22,HMFKNWMPFDEARIFVRKLKFNSHDEFRKYLKANEINIPSKPWSTYKGKGWVSIGDFLGTHR,-3.26
23,HMFLPGETFDVKIVKIGEGENQGVGYLDDGTMIVIENGRDHLNELARVIVTRVLQNSAGQMIFSDYEE,-2.21
24,HMFLTPLEETRLAIEEVVIAKNIAIDLFPRESAIRKQQHELIYHYHLKGLTVGTEKNKRLRIFPRGY,0.0279
25,HMFLTSDEGKIMQLLEDKQRITRKDAQELLGVSQSTAGRILKTLVDNGQITQRGGGRTTRYELIK,0.104
26,HMFMKNTEVALAIKGKFSNQTTITSKELVLFLSDLFPELSNKTIPWKINQLKAENLIYQTGRGIYTFN,-2.53
27,HMFMMVAGHLQIKNEKYYMVLELRTEQGERKTKWIGTGLAVKGNKRRAEAMLEETRTKYLSPV,-2.18
28,HMFMPGTIIKQFRELRNYSQDYVSRKMGISQNAYSKIENNITQLTVTHVKQLSSILDVPIVELLR,-3.71
